Experimental data published in the RNAGym collection of RNA variant scans (doi:10.1073/pnas.2313332121).

B1: TPR t1 (parent)
chain: GACCAAUCUGCCCUCAGAGCUCGAGAACAUCUUCGGAUGCAGAGGAGGCAGGCUUCGGUGGCGCGAUAGCGCCAACGUCCUCAACCUCCAAUGCAUCCCACCACAUGAUGAUGCCUGAAGAGCCUUGGUUUUUUG

Variants of: B1
Assay: polymerase ribozyme fitness, log enrichment relative to wild type (log ratio); higher = more active; in vitro selection for triplet polymerase activity
Procedure, shortened: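 Genotype fitness is the logarithm of its enrichment divided by wild-type enrichment, using inverse-variance-weighted averages of replicates. That logarithm is base 2. Enrichment was measured by Illumina sequencing of input and output libraries from one triplicate in vitro selection round, with frozen incubation at −7 °C, on PCR-built, transcribed mutant libraries of each subunit of a heterodimeric triplet polymerase ribozyme, retaining genotypes with ≥10 input reads and ≥1 read per output.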

Row | Variant | polymerase ribozyme fitness (log ratio)
1 | C11U A16C G93C | -4.45
2 | C11U G61A C88G C94G U130C | -4.74
3 | C11U A118U | -0.464
4 | C12G A41C C82U | -0.401
5 | C11U A16U U112A | -0.434
6 | C11U U38G G57U G69C A74G G110A | -7.09
7 | C12G A46G G63A C115G | -6.03
8 | C11G G51A C72A | -2.19
9 | C11G G61U C86A U106G C114U | -4.18
10 | C11U A29U | -2.46
11 | C11U A29C | -3.12
12 | C11U U116G G122A C124U | 0.369
13 | C11G G35A | -2.51
14 | C11U G51U A119U | -3.53
15 | C11G G77U C80U G113U | -3.12
16 | C11U C56G C88U G120C G122U G127A | -0.748
17 | C12A C62G U78C C79A C85G | -7.47
18 | C11U A18U C20U C56U C101A | -3.06
19 | C12A C86U A111U | -3.42
20 | C12A G120C A121U | 1.87
21 | C11U C34U G71A A121C U129C | -6.13

Row | Variant | polymerase ribozyme fitness (log ratio)
22 | C11G G48C A66G G110A | -3.11
23 | C11U C114G | -3.54
24 | C11U C114U | -1.57
25 | C12G A26G | -1.93
26 | C12A C102U C115A | -4.21
27 | C12A U55A G122A U126A | -5.02
28 | C11U C56A C104A C115G | -6.27
29 | C12A G17U G42U C53G U59C C101A | -5.66
30 | C11G G19C C73G | -3.75
31 | C11G G69A C70A | -4.98
32 | C12G C15G G45A G61C | -4.58
33 | C12G A27U C56U C101G C102A C104G C114U | -5.64
34 | C11U C12A A41C C56G G69U | -2.94
35 | C12A C86G C123A | 0.105
36 | C11U A83C | -0.558
37 | C11U G60A G61U U78C C86G | -4.45
38 | C12G A29U A46U C124A | -1.77
39 | C11U C53U A84G | -1.32
40 | C11U U54C G63U C85A | -2.46
41 | C11G G113A U133A | -1.34
42 | C12G A50U G117C U125C | -6.32

Row | Variant | polymerase ribozyme fitness (log ratio)
43 | C11U C20A G42C C102U U112C C124G | -5.12
44 | C12G C13A G42C G69A G117C A118U U134G | -4.53
45 | C11U U54A G60A G110C A121U | -4.92
46 | C11U C20U G63A U87C | -1.21
47 | C12A U14A U87A C88U | -4.28
48 | C11G U59A A68U | -7.59
49 | C11G U129G | -1.77
50 | C12G C15A U78A | -2.34
51 | C11U C40U G60U G77C A111U | -4.37
52 | C12A U54A G113C U125G | -3.66
53 | C12A C56A C80U A84U C89U A119G C123A | -0.802
54 | C12A C28U G44A C49G C72U C86A | -4.58
55 | C11U C15G A27G C94G U109C G110A A119U G120A | -7.62
56 | C11U A43U C56U C114G G128C | -5.28
57 | C12A G61U U78A U96A | -1.84
58 | C12A C70A C85G U116C | -4.83
59 | C11U G120U G122U | 1.38
60 | C12A G51C | -4.5
61 | C12A G51A | -2.41
62 | C12G A83U C104A U125G | -2.42
63 | C11G U14A A26C C80A C89U C124U | -6.54

Row | Variant | polymerase ribozyme fitness (log ratio)
64 | C11U C13U A18G C56U U109A | -4.43
65 | C12A G51U C64U A90G | -2.6
66 | C12A C15U G48C U92C U96A G122A | -4.12
67 | C11U C97U | -1.74
68 | C11U U78G A95C G113U C114G | -4.56
69 | C12A C20U G47U | -4.43
70 | C12A G52A A91G | -1.2
71 | C11G G48U C72A | -0.215
72 | C12G C13U G52U G61U C102U A121U G122C | -1.95
73 | C11G G107C | -4.6
74 | C11G G17U G61A A105G | -6.42
75 | C11G G61C U78A U126A | -0.897
76 | C12G C15A A108G A111C | -4.53
77 | C12A C49G G63C C86G U131G | -3.12
78 | C11U G44C G61U C104U U116C | -2.32
79 | C11U A37U U55C | -1.28
80 | C12A G42U C88G C114U | -4.43
81 | C11U C53U C72U C82G | -1.43
82 | C12A C76A C82A U92G | -4.72
83 | C12A A26C C56G G63U C89G G107A U116C | -7.06
